Measurements: the RNAGym collection of RNA variant scans (doi:10.7554/elife.80360)

B1: HDV Ribozyme (parent)
chain: GGCCGGCAUGGUCCCAGCCUCCUCGCUGGCGCCGGCUGGGCAACAUUCCGAGGGGACCGUCCCCUCGGUAAUGGCGAAUGGGACCCA

Variants of: B1
Assay: self-cleavage, relative activity (ratio to wild type); higher = more cleavage; co-transcriptional

Point of comparison: GGCCGGCAUGGUCCCAGCCUCCUCGCUGGCGCCGGGUGGGCAACAUUCCGAGGGGACCGUCCCCUCGGUAAUGGCGAAUGGGUCCCA, self-cleavage 0.113. Against it:
- GGCCGGAAUGGUCCCAGCCUCCUCGCUGGCGCCGGCUGGGCGACAUUCCGAGGGGACCGUCCCCUCGGUAAUGGCGAAUGGGACCCA — lower, 0.0831
- GGCCGGCAUGGUCCCAGCCUCCUCGCUGGCGCCGGCUGGGCAACAUUCCGAGGGGACCGUCCCCCGGGUAAUGGCGAAUGGGACCCA — higher, 1.11
- GGCCGGUAUGGUCCCAGCCUCCUCGCUGGCGCCGGCUGGGCAACAUUCCGAGGGGAACGUCCCCUCGGUAAUGGCGAAUGGGACCCA — higher, 0.979
- GGCCGGGAUGGUCCCAGCCUCCUCGCUGGCGCCGGCUGGGCAACAUUCCGAGGGGACCGUCCCCUCGGUAAUGGCGAAGGGGACCCA — lower, 0.104
- GGCCGGCAUGGUGCCAGCCUCCUCGCUGGCGCCGGCUGGGCAACAUUCCGAGUGGACCGUCCCCUCGGUAAUGGCGAAUGGGACCCA — lower, 0.102
- AGCCGGCAUGGUCCCAGCCUCCUCGCUGGCGCCGGCUGGGCAACAUUCCGAGGGGACCGUCCCCUCGGUAAUGGCGAUUGGGACCCA — lower, 0.0449
- GGCCCGCAUGGUCCCAGCCUCCUCGCUGGCGCCGGCUGGGCAACAUUCCGAGGGGACCGUCCCCUCGGUAAUGGCGAAUAGGACCCA — higher, 0.256
- GGCCGGCAUGAUCCCAGCCUCCUCGCUGGCGCCGGCUGGGCAACAUUCCGAGGGUACCGUCCCCUCGGUAAUGGCGAAUGGGACCCA — higher, 0.328
- GGCCGGCAUGGUCCCAGCCUCCUCGCUAGCGCCGGCUGGGAAACAUUCCGAGGGGACCGUCCCCUCGGUAAUGGCGAAUGGGACCCA — higher, 0.13
- GGCCGGAAUGGUCCCAGCCUCCUCGCUGGCGCCGGCUGGGCAACAUUCCGAGGGGACCGUCCCCUCGGUACUGGCGAAUGGGACCCA — higher, 0.298
- GGCCGGCAUGGUCCCCGCCUCCUCGCUGGCGCCGGCUGGGCAACAUUCCGAGGGGACCGUCCCCUCGGUAAUGGCGUAUGGGACCCA — higher, 0.199
- GGCCGGCAUGGUCCCAGCCUGCUCGCUGGCGCCGGCUGGGCAACAUUCCGAGGGGACCGUCCCCUCGGUAGUGGCGAAUGGGACCCA — lower, 0.0594
- GGCCGGCUUGGUCCCAGCCUCCUCGCUGGCGCCGGCUGGGCAACAUUCCGAGGGGACCGUCCCCUCCGUAAUGGCGAAUGGGACCCA — higher, 0.718
- GGCCGGCAUGGUCCCAGCCUCCUCGCCGGCGCCGGCUGGGCAACAUUCCGAGGGGACCGUCCCCUCGGUAAUGGCGAAUGGGCCCCA — higher, 0.554
- GGCCGGCAUGGUCCCAGCCUCCUCGCUGGCGCCGGCUGUGCAACAUUCCGAGGGGACCGUCCCCUCGGUAAUGGCGAAUGGGAUCCA — higher, 0.492
- GGCCGGCAUGGUCCCAGCCUCCUCGCUGGCGCCGGCUGGGGAACAUUCCGAGGGGACCGUCCCCUCGGUAAUGGCUAAUGGGACCCA — higher, 0.989
- GGCCGGCAUGGUCCCAGCCCCCUCGCUGGCGCCGGCUGGGCAUCAUUCCGAGGGGACCGUCCCCUCGGUAAUGGCGAAUGGGACCCA — lower, 0.0378
- GGCCGGCAUGGUACCAGCCUCCUCGCUGGCGCCGGCUGGGCAACAUUCCGAGGGGACCGUCCCCUAGGUAAUGGCGAAUGGGACCCA — higher, 0.125
- GGCCGGCAUGGUCCCAGCCUCCUCGCUGGCGCCGGCUGGGCAACAUUCCGAGGGGACCGUCACCUCGGAAAUGGCGAAUGGGACCCA — higher, 0.997
- GGCCGGCAUGGUCCCAGCCUCCUCGCUGGCGCCGGCUGGGCAACAAUCCGAGGGGACCGUCCCCUCGGUAAUGGCGAAUGGGACCCA — higher, 0.794
- GGCCGGCAUGGUCCCAGCCUCCUCGCUCGCGCCGGCUGGGCAACAUUCCGAGGGGAACGUCCCCUCGGUAAUGGCGAAUGGGACCCA — lower, 0
- GGCCGGCAUGGUCCGCGCCUCCUCGCUGGCGCCGGCUGGGCAACAUUCCGAGGGGACCGUCCCCUCGGUAAUGGCGAAUGGGACCCA — higher, 0.369
- GGCCGGCAUGGUCCCAGCCUCCUAGCUGGCGCCGGCUGGGCAACAUUCCGAGGGGACCGUCCUCUCGGUAAUGGCGAAUGGGACCCA — higher, 0.692
- GGCCGGCAUGGUCCCAGCCUCCGCGCUGGCGCCGGCUGGGCACCAUUCCGAGGGGACCGUCCCCUCGGUAAUGGCGAAUGGGACCCA — higher, 0.131
- GGCCGGCAUGGUCCCAGCCUCCUCGCUGGCGCCGGAUGGGCAACAUUCCGAGGGGACCGUCCCCUCGGUACUGGCGAAUGGGACCCA — lower, 0.0573
- GGCCGGCAUGGUCCCAGCCUCCUCGCUGGCUCCGGCUGGGCAACAUUCCGAGGGGACCGUCCCCGCGGUAAUGGCGAAUGGGACCCA — higher, 0.383
- GGCCGGCAUGGUCCCAGCCUCCUCGCUGGCGCCGGCUGGGCAACACUCCGAGGUGACCGUCCCCUCGGUAAUGGCGAAUGGGACCCA — higher, 0.786
- GGCCGGCAUGGUCCCAGCCUCCUCGCUGGCGCCGGCUGGGCAACAUUCCGAGGGGACCGUGCCCUCGGUAAUGGCGAUUGGGACCCA — higher, 0.219
- GGCCGGCAUGGUCCCAGCCUCCUCGCUAGCGCCGGCUGGGCAACAUUCCGAGGGGACCUUCCCCUCGGUAAUGGCGAAUGGGACCCA — higher, 0.117
- GGCCGGCAUGGUCCCAGCCCCCUCGCUGGCGCCGGCUGGGCAACAUUCCGAGGGGACCGUCCCCUCGGUAAUGGGGAAUGGGACCCA — lower, 0
- GACCGGCAUGGUCCCAGACUCCUCGCUGGCGCCGGCUGGGCAACAUUCCGAGGGGACCGUCCCCUCGGUAAUGGCGAAUGGGACCCA — lower, 0.0236
